Data: paper PMC11297931 (2024)
One block for each binder: values may come before it.

Tests used:
Experiment in all cases: SPR
[1] = target: T1, doubly T-loop phosphorylated Cdk7/Cyclin H/Mat1_(230-309) ternary complex (human, UniProt P50613 2-346; P51946 1-323; P51948 230-309, phosphoserine at 164; phosphothreonine at 170 | M1 acetylated)
T1 chain 1: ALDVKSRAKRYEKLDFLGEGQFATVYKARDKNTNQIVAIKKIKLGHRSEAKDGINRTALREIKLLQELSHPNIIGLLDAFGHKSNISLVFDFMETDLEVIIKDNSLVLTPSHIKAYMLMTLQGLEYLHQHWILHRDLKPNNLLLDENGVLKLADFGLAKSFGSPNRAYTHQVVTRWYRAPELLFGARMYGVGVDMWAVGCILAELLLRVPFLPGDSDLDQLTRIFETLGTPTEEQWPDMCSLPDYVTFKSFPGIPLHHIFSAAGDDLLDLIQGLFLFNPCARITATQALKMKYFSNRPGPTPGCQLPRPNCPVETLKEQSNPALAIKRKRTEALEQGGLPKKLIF
T1 chain 2: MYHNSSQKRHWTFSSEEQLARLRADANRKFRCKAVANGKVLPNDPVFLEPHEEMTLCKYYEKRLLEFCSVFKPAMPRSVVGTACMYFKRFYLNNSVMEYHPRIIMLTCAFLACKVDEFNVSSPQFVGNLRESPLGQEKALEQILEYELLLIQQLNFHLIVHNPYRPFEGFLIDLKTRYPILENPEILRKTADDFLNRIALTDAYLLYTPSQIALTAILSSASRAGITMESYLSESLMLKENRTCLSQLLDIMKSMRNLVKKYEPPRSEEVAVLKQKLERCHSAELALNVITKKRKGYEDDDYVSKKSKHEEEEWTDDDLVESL
T1 chain 3: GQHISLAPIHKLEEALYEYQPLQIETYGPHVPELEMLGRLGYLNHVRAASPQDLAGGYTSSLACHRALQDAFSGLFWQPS

[2] = target: Cdk7(S164E)/Cyclin H binary complex (human, UniProt P50613 2-346; P51946 1-323, S164E, phosphothreonine at 170)
[3] = target: Cdk7(S164A)/Cyclin H binary complex (human, UniProt P50613 2-346; P51946 1-323, S164A, phosphothreonine at 170)

Kd [1]: 0.6 nM
B1: VHH_(RD7-04), form for biochemical studies (VHH)
VHH: QVQLVESGGGLVQPGGSLRLSCVASGFTFKNFYMGWVRQAPDKGLEWVATINSGGEIQSYADSVKGRFTISRDNAKNTLYLQMNNLRPEDTAVYYCSKQSSTPAKGQGTQVTVSS

Kd [2]: 7.3 nM | Kd [3]: 10.8 nM
B2: MBP-Mat1_(230-309) (domain or fragment)
chain: T1 chain 3
